Laboratory results: article PMC11917135

Biological target: M53 protein (Streptococcus pyogenes) (UniProt P49054)
Assay: SPR; screen: 200 nM Plg injected for 2100 s at 10 μL/min over immobilised Mrp or control M protein, 900 s dissociation; no Fg

UniProt P49054, sequence (P49054 30-384): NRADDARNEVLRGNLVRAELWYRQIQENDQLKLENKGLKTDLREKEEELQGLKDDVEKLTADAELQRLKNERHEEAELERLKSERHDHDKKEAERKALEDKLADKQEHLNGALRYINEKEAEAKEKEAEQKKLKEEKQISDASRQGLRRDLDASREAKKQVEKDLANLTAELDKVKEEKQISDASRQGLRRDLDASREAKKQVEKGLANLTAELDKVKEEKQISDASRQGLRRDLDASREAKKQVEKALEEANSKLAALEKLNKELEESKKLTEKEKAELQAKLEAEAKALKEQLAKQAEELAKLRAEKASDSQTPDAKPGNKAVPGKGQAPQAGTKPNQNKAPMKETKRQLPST

With human Glu-plasminogen (natural protein) the Kd was < 50 nM.
